This note sets out measurements from the supplement of paper PMC5998384.

For series [1], the system named is HeLa Kyoto. As to the kind of experiment: solubility in G1/S (NP-40 vs SDS abundance) (log2 ratio); higher = more soluble. As to conditions: cell cycle stage: G1/S.
In series [2] the test system is HeLa Kyoto. As to the kind of experiment: melting temperature (median over replicates), in situ; higher = more thermally stable.
Series [3] concerns HeLa Kyoto. The experiment in a line: solubility change mitosis vs G1/S (difference of NP-40 vs SDS log2 ratios) (log2 ratio difference); higher = more soluble in mitosis.
The subject of series [4] is HeLa Kyoto. The experiment in a line: thermal stability score vs G1/S (z-score of summed log2 fold changes over temperatures); higher = more thermally stable than in G1/S.
Where [5] appears, read: cell cycle stage: early G1 (4.5 h after nocodazole release).
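Wherever melting temperature (median over replicates), in situ is given: HeLa Kyoto cells synchronized by double thymidine or nocodazole block, proteins quantified by TMT10plex mass spectrometry, three independent biological replicates.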
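Wherever solubility change mitosis vs G1/S (difference of NP-40 vs SDS log2 ratios) is given: synchronized HeLa Kyoto cells (double thymidine block for G1/S, nocodazole release for mitosis), protein amounts in NP-40 versus SDS lysates quantified by mass spectrometry, three biological replicates.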
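Wherever solubility in G1/S (NP-40 vs SDS abundance) is given: HeLa Kyoto cells arrested at G1/S by double thymidine block, proteins quantified by TMT10plex mass spectrometry in mild NP-40 versus SDS extracts, three biological replicates.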
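Wherever thermal stability score vs G1/S (z-score of summed log2 fold changes over temperatures) is given: synchronized HeLa Kyoto cells, proteins quantified by TMT10plex mass spectrometry, three biological replicates, mitosis taken 0.5 h after nocodazole release, G1/S directly after double thymidine block.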

With “MASTNAESQLQRIIRDLQDAVTELSKEFQEAGEPITDDSTSLHKFSYKLEYLLQFDQKEKATLLGNKKDYWDYFCACLAKVKGANDGIRFVKSISELRTSLGKGRAFIRYSLVHQRLADTLQQCFMNTKVTSDWYYARSPFLQPKLSSDIVGQLYELTEVQFDLASRGFDLDAAWPTFARRTLTTGSSAYLWKPPSRSSSMSSLVSSYLQTQEMVSNFDLNSPLNNEALEGFDEMRLELDQLEVREKQLRERMQQLDRENQELRAAVSQQGEQLQTERERGRTAAEDNVRLTCLVAELQKQWEVTQATQNTVKELQTCLQGLELGAAEKEEDYHTALRRLESMLQPLAQELEATRDSLDKKNQHLASFPGWLAMAQQKADTASDTKGRQEPIPSDAAQEMQELGEKLQALERERTKVEEVNRQQSAQLEQLVKELQLKEDARASLERLVKEMAPLQEELSGKGQEADQLWRRLQELLAHTSSWEEELAELRREKKQQQEEKELLEQEVRSLTRQLQFLETQLAQVSQHVSDLEEQKKQLIQDKDHLSQQVGMLERLAGPPGPELPVAGEKNEALVPVNSSLQEAWGKPEEEQRGLQEAQLDDTKVQEGSQEEELRQANRELEKELQNVVGRNQLLEGKLQALQADYQALQQRESAIQGSLASLEAEQASIRHLGDQMEASLLAVRKAKEAMKAQMAEKEAILQSKEGECQQLREEVEQCQQLAEARHRELRALESQCQQQTQLIEVLTAEKGQQGVGPPTDNEARELAAQLALSQAQLEVHQGEVQRLQAQVVDLQAKMRAALDDQDKVQSQLSMAEAVLREHKTLVQQLKEQNEALNRAHVQELLQCSEREGALQEERADEAQQREEELRALQEELSQAKCSSEEAQLEHAELQEQLHRANTDTAELGIQVCALTVEKERVEEALACAVQELQDAKEAASREREGLERQVAGLQQEKESLQEKLKAAKAAAGSLPGLQAQLAQAEQRAQSLQEAAHQELNTLKFQLSAEIMDYQSRLKNAGEECKSLRGQLEEQGRQLQAAEEAVEKLKATQADMGEKLSCTSNHLAECQAAMLRKDKEGAALREDLERTQKELEKATTKIQEYYNKLCQEVTNRERNDQKMLADLDDLNRTKKYLEERLIELLRDKDALWQKSDALEFQQKLSAEERWLGDTEANHCLDCKREFSWMVRRHHCRICGRIFCYYCCNNYVLSKHGGKKERCCRACFQKLSEGPGSPDSSGSGTSQGEPSPALSPASPGPQATGGQGANTDYRPPDDAVFDIITDEELCQIQESGSSLPETPTETDSLDPNAAEQDTTSTSLTPEDTEDMPVGQDSEICLLKSGELMIKVPLTVDEIASFGEGSRELFVRSSTYSLIPITVAEAGLTISWVFSSDPKSISFSVVFQEAEDTPLDQCKVLIPTTRCNSHKENIQGQLKVRTPGIYMLIFDNTFSRFVSKKVFYHLTVDRPVIYDGSDFL [FYCO1]”, in the series with HeLa Kyoto [1], the “solubility in G1/S (log2)” value is 0.0536. In addition, the melting temperature amounted to 51.3 °C in the series on HeLa Kyoto [2] (cell cycle stage: G1/S) and 51 °C with HeLa Kyoto [2] (cell cycle stage: mitosis). For the same sequence, the “solubility change mitosis (log2)” value in the series with HeLa Kyoto [3] is -0.142. Moreover, the thermal stability score with HeLa Kyoto [4] (setting [5]) was -0.119; in the series with HeLa Kyoto [4] (cell cycle stage: mitosis) it was 0.0455.

“MASYPSGSGKPKAKYPFKKRASLQASTAAPEARGGLGAPPLQSARSLPGPAPCLKHFPLDLRTSMDGKCKEIAEELFTRSLAESELRSAPYEFPEESPIEQLEERRQRLERQISQDVKLEPDILLRAKQDFLKTDSDSDLQLYKEQGEGQGDRSLRERDVLEREFQRVTISGEEKCGVPFTDLLDAAKSVVRALFIREKYMALSLQSFCPTTRRYLQQLAEKPLETRTYEQGPDTPVSADAPVHPPALEQHPYEHCEPSTMPGDLGLGLRMVRGVVHVYTRREPDEHCSEVELPYPDLQEFVADVNVLMALIINGPIKSFCYRRLQYLSSKFQMHVLLNEMKELAAQKKVPHRDFYNIRKVDTHIHASSCMNQKHLLRFIKRAMKRHLEEIVHVEQGREQTLREVFESMNLTAYDLSVDTLDVHADRNTFHRFDKFNAKYNPIGESVLREIFIKTDNRVSGKYFAHIIKEVMSDLEESKYQNAELRLSIYGRSRDEWDKLARWAVMHRVHSPNVRWLVQVPRLFDVYRTKGQLANFQEMLENIFLPLFEATVHPASHPELHLFLEHVDGFDSVDDESKPENHVFNLESPLPEAWVEEDNPPYAYYLYYTFANMAMLNHLRRQRGFHTFVLRPHCGEAGPIHHLVSAFMLAENISHGLLLRKAPVLQYLYYLAQIGIAMSPLSNNSLFLSYHRNPLPEYLSRGLMVSLSTDDPLQFHFTKEPLMEEYSIATQVWKLSSCDMCELARNSVLMSGFSHKVKSHWLGPNYTKEGPEGNDIRRTNVPDIRVGYRYETLCQELALITQAVQSEMLETIPEEAGITMSPGPQ [AMPD2]”: in the series with HeLa Kyoto [1], the “solubility in G1/S (log2)” value amounted to 0.0591. Moreover, the values for the melting temperature with HeLa Kyoto [2] (cell cycle stage: G1/S) and in the series with HeLa Kyoto [2] (cell cycle stage: mitosis) were 56.2 °C and 55 °C, respectively. Moreover, in the series on HeLa Kyoto [3], the “solubility change mitosis (log2)” value is -0.181. The thermal stability score with HeLa Kyoto [4] (setting [5]) was -0.578; in the series on HeLa Kyoto [4] (cell cycle stage: mitosis) it was -2.37.

In the case of “MATAATIPSVATATAAALGEVEDEGLLASLFRDRFPEAQWRERPDVGRYLRELSGSGLERLRREPERLAEERAQLLQQTRDLAFANYKTFIRGAECTERIHRLFGDVEASLGRLLDRLPSFQQSCRNFVKEAEEISSNRRMNSLTLNRHTEILEILEIPQLMDTCVRNSYYEEALELAAYVRRLERKYSSIPVIQGIVNEVRQSMQLMLSQLIQQLRTNIQLPACLRVIGYLRRMDVFTEAELRVKFLQARDAWLRSILTAIPNDDPYFHITKTIEASRVHLFDIITQYRAIFSDEDPLLPPAMGEHTVNESAIFHGWVLQKVSQFLQVLETDLYRGIGGHLDSLLGQCMYFGLSFSRVGADFRGQLAPVFQRVAISTFQKAIQETVEKFQEEMNSYMLISAPAILGTSNMPAAVPATQPGTLQPPMVLLDFPPLACFLNNILVAFNDLRLCCPVALAQDVTGALEDALAKVTKIILAFHRAEEAAFSSGEQELFVQFCTVFLEDLVPYLNRCLQVLFPPAQIAQTLGIPPTQLSKYGNLGHVNIGAIQEPLAFILPKRETLFTLDDQALGPELTAPAPEPPAEEPRLEPAGPACPEGGRAETQAEPPSVGP [COG8]”, the “solubility in G1/S (log2)” value with HeLa Kyoto [1] is -0.00808. Also, the melting temperature in the series with HeLa Kyoto [2] (cell cycle stage: G1/S) turned out to be 50.6 °C; with HeLa Kyoto [2] (cell cycle stage: mitosis), 48.4 °C. In the series with HeLa Kyoto [3], the “solubility change mitosis (log2)” value was -0.112. The values for the thermal stability score in the series on HeLa Kyoto [4] (setting [5]) and in the series with HeLa Kyoto [4] (cell cycle stage: mitosis) were 0.73 and 1.67, respectively.

With “MATAATSPALKRLDLRDPAALFETHGAEEIRGLERQVRAEIEHKKEELRQMVGERYRDLIEAADTIGQMRRCAVGLVDAVKATDQYCARLRQAGSAAPRPPRAQQPQQPSQEKFYSMAAQIKLLLEIPEKIWSSMEASQCLHATQLYLLCCHLHSLLQLDSSSSRYSPVLSRFPILIRQVAAASHFRSTILHESKMLLKCQGVSDQAVAEALCSIMLLEESSPRQALTDFLLARKATIQKLLNQPHHGAGIKAQICSLVELLATTLKQAHALFYTLPEGLLPDPALPCGLLFSTLETITGQHPAGKGTGVLQEEMKLCSWFKHLPASIVEFQPTLRTLAHPISQEYLKDTLQKWIHMCNEDIKNGITNLLMYVKSMKGLAGIRDAMWELLTNESTNHSWDVLCRRLLEKPLLFWEDMMQQLFLDRLQTLTKEGFDSISSSSKELLVSALQELESSTSNSPSNKHIHFEYNMSLFLWSESPNDLPSDAAWVSVANRGQFASSGLSMKAQAISPCVQNFCSALDSKLKVKLDDLLAYLPSDDSSLPKDVSPTQAKSSAFDRYADAGTVQEMLRTQSVACIKHIVDCIRAELQSIEEGVQGQQDALNSAKLHSVLFMARLCQSLGELCPHLKQCILGKSESSEKPAREFRALRKQGKVKTQEIIPTQAKWQEVKEVLLQQSVMGYQVWSSAVVKVLIHGFTQSLLLDDAGSVLATATSWDELEIQEEAESGSSVTSKIRLPAQPSWYVQSFLFSLCQEINRVGGHALPKVTLQEMLKSCMVQVVAAYEKLSEEKQIKKEGAFPVTQNRALQLLYDLRYLNIVLTAKGDEVKSGRSKPDSRIEKVTDHLEALIDPFDLDVFTPHLNSNLHRLVQRTSVLFGLVTGTENQLAPRSSTFNSQEPHNILPLASSQIRFGLLPLSMTSTRKAKSTRNIETKAQVVPPARSTAGDPTVPGSLFRQLVSEEDNTSAPSLFKLGWLSSMTK [COG1]”, the “solubility in G1/S (log2)” value with HeLa Kyoto [1] was -0.122. In addition, the figures for the melting temperature in the series with HeLa Kyoto [2] (cell cycle stage: G1/S) and with HeLa Kyoto [2] (cell cycle stage: mitosis) were 49.8 °C and 49.4 °C, respectively. Also, the “solubility change mitosis (log2)” value with HeLa Kyoto [3] was found to be 0.0588. Besides, the results for the thermal stability score with HeLa Kyoto [4] (setting [5]) and in the series on HeLa Kyoto [4] (cell cycle stage: mitosis) were -0.0852 and 0.918, respectively.
